Measured values reported in patent US20050025777A1, “Particle-mediated delivery of antigens” (priority 1994, published 2005).
“And” between values parts separate entries of the source, which are not always exact repeats. Identical values can stand only once.

How the values were obtained:
[1] = biological target: Human Alpha 1 Anti-Trypsin Protein (Homo sapiens, UniProt P01009); assay: Antibody responses to human alpha 1 anti-trypsin protein after immunization; assay type: in vivo, mice
[2] = Induction of cytotoxic cellular response by HIV gp 120 peptide; conditions: in vivo
[3] = Accell (no adjuvant), prime + 1 boost
[4] = Accell (no adjuvant), prime only

Chain of Human Alpha 1 Anti-Trypsin Protein (P01009 25-418): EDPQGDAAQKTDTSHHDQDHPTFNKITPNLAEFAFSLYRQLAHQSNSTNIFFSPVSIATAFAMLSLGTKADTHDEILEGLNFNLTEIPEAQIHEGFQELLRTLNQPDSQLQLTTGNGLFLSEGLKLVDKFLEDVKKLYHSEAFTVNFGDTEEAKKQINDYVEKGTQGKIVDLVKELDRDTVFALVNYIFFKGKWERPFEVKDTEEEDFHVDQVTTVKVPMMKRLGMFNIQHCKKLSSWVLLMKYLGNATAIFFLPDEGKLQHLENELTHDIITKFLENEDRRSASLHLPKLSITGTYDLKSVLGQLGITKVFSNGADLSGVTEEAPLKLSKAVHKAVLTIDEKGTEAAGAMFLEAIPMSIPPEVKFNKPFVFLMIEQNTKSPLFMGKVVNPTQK

Row | Molecule | number with detectable antibody/total number tested [1, 3] | reciprocal antibody titers [1, 3] | number with detectable antibody/total number tested [1, 4] | reciprocal antibody titers [1, 4] | number with detectable antibody/total number tested ([1]; injection with Freund's adjuvant, prime + 1 boost) | number with detectable antibody/total number tested ([1]; injection with Freund's adjuvant, prime only) | regimen required to induce a cytotoxic cellular response [2]
1 | Human Alpha 1 Anti-Trypsin Protein: Human Alpha 1 Anti-Trypsin Protein used as immunogen | 4/4 | 9500 and 6500 and 5500 | 4/4 | 350 and 375 and 210 and 250 | 4/4 | 4/4 | 
2 | CC[C@H](C)[C@H](NC(=O)[C@@H](NC(=O)[C@@H](NC(=O)[C@H](Cc1ccccc1)NC(=O)[C@H](C)NC(=O)[C@H](CCCNC(=N)N)NC(=O)CNC(=O)[C@@H]1CCCN1C(=O)CNC(=O)[C@H](CCCNC(=N)N)NC(=O)[C@H](CCC(N)=O)NC(=O)[C@@H](NC(=O)[C@@H](N)CCCNC(=N)N)[C@@H](C)CC)C(C)C)[C@@H](C)O)C(=O)NCC(=O)N[C@@H](CCCCN)C(=O)O [HIV gp 120] |  |  |  |  |  |  | a single dose, i.e. the prime, is all that is required
